Experimental data as given in publication PMC3409459, “Absorption, distribution, metabolism and excretion of peginesatide, a novel erythropoiesis-stimulating agent, in rats” (Xenobiotica; the Fate of Foreign Compounds in Biological …, 2011).

How the values were obtained:
[1] = Radioactivity in plasma, skin and eyes of pigmented vs albino rats (affinity for melanin); format: in vivo, male Long Evans (pigmented) rats; conditions: single IV 5 mg·kg^−1 [^14C]-peginesatide; through 60 days; LSC; n=3 per time point
Procedure: Male Sprague-Dawley (albino) rats (n = 21; three per time point) were administered a single IV dose of 5 mg·kg^−1 [^14C]-peginesatide (27.5 μCi/kg) and tissue concentrations of radioactivity determined at 0.25, 6, and 24 h, and 7,14,30 and 60 days following dosing. Similarly, male Long Evans (pigmented) rats (n = 21; three per time point) were administered a single IV dose of 5 mg-kg^−1 [^14C]-peginesatide and plasma, skin, and eye concentrations of radioactivity were measured at the various time points through 60 days after dosing. At each time point, blood was collected, the animals sacrificed, and tissues excised. Tissues collected from the Sprague-Dawley rats included blood, plasma, adrenals, bone marrow, brain, eyes, fat, femur, Harderian glands, heart, hypophysis, intestine, kidneys, lungs, liver, pancreas, skeletal muscle, skin, spinal cord, spleen, stomach, submaxillary glands, testes, thymus, thyroid gland, and urinary bladder. Plasma, eyes, non-pigmented skin, and pigmented skin were collected from Long Evans rats. All tissue samples were measured for radioactivity by LSC following combustion. […] The concentration of radioactivity in the blood, plasma, and tissues was calculated and expressed as ug equiv·g^-1 or mLbased on the LSC counts and the specific activity of the dosing solution.

[2] = Mass balance study (urine, feces, expired air, carcass); conditions: initial 3 days after dosing; single IV 5 mg·kg^−1
From the text: Radioactivity in diluted formulations, plasma, urine, and expired air (CO2-absorbent solution) was quantitated by mixingwith liquid scintillator Hionic-Fluor (PerkinElmer Life and Analytical Sciences) followed by liquid scintillation counting (LSC). Solid samples were homogenized (10 or 20% w/v in distilled water) before combustion in a sample oxidizer (A030701; PerkinElmer Life and Analytical Sciences) with Carbo-Sorb E (PerkinElmer Life and Analytical Sciences) as a carbon dioxide absorbent and Permafluor E^+ (PerkinElmer Life and Analytical Sciences) as a liquid scintillator. Total captured radioactivity was subsequently measured via LSC.
Urine and feces were collected at 24-h intervals up to 14 days after dosing and expired air was collected up to 24 h after dosing. The levels of radioactivity in urine and expired air were measured by LSC and in feces by LSC following combustion. After the final collection of excreta at 2 weeks, the animals were sacrificed and the carcasses were dissolved in potassium hydroxide/distilled water/ethanol (3:3:7, w/v/v), and examined for residual radioactivity by LSC.

Peginesatide
association with melanin (kinetics in plasma, skin and eyes of pigmented vs non-pigmented rats) [1]: neither peginesatide nor the other radioactive components associated with melanin
fecal recovery of the total radioactive dose [2]: 5 % of the total radioactive dose
urinary recovery of the total radioactive dose [2]: 23 % of the total radioactive dose
